{
  "source": "patent US20060292151A1",
  "about": "(published 2006)",
  "data": [
    {"target": "T1, HCV pseudovirus particles (HCVpp) (hepatitis C virus isolate H77, UniProt P27958 192-383; P27958 384-746)", "T1 construct": "A pseudovirus particle (HIV-1 NL4.3 luciferase core) that carries E1/E2 on its envelope; Putative splice acceptor sites changed by conservative mutagenesis; also called HIV-1 particles pseudotyped with HCV E1/E2 envelope glycoproteins", "assay": "HCVpp supernatant on HeLa-SIGN transfectants, cell-bound p24 by ELISA", "values": [
      {"binder": "L-SIGN-3 (receptor, Expressed whole on the surface of stably transfected HeLa cells; Encodes tandem repeats 1, 3 and 7; also called L-SIGN isoform containing 3 tandem repeats; 3-repeat form of L-SIGN) MSDSKEPRVQQLGLLEEDPTTSGIRLFPRDFQFQQIHGHKSSTGCLGHGALVLQLLSFMLLAGVLVAILVQVSKVPSSLSQEQSEQDAIYQNLTQLKAAVGELSEKSKLQEIYQELTRLKAAVGELPEKSKLQEIYQELTQLKAAVGELPDQSKQQQIYQELTDLKTAFERLCRHCPKDWTFFQGNCYFMSNSQRNWHDSVTACQEVRAQLVVIKTAEEQNFLQLQTSRSNRFSWMGLSDLNQEGTWQWVDGSPLSPSFQRYWNSGEPNNSGNEDCAEFSGSGWNDNRCDVDNYWICKKPAACFRDE", "binding result": "binds"},
      {"binder": "L-SIGN-4 (receptor, Expressed whole on the surface of stably transfected HeLa cells; Encodes repeats 1, 3, 4 and 7; also called L-SIGN isoform containing 4 tandem repeats; 4-repeat form of L-SIGN) MSDSKEPRVQQLGLLEEDPTTSGIRLFPRDFQFQQIHGHKSSTGCLGHGALVLQLLSFMLLAGVLVAILVQVSKVPSSLSQEQSEQDAIYQNLTQLKAAVGELSEKSKLQEIYQELTRLKAAVGELPEKSKLQEIYQELTRLKAAVGELPEKSKLQEIYQELTQLKAAVGELPDQSKQQQIYQELTDLKTAFERLCRHCPKDWTFFQGNCYFMSNSQRNWHDSVTACQEVRAQLVVIKTAEEQNFLQLQTSRSNRFSWMGLSDLNQEGTWQWVDGSPLSPSFQRYWNSGEPNNSGNEDCAEFSGSGWNDNRCDVDNYWICKKPAACFRDE", "binding result": "binds"},
      {"binder": "L-SIGN-5 (receptor, Expressed whole on the surface of stably transfected HeLa cells; Encodes repeats 1-4 and 7; also called L-SIGN isoform containing 5 tandem repeats; 5-repeat form of L-SIGN) MSDSKEPRVQQLGLLEEDPTTSGIRLFPRDFQFQQIHGHKSSTGCLGHGALVLQLLSFMLLAGVLVAILVQVSKVPSSLSQEQSEQDAIYQNLTQLKAAVGELSEKSKLQEIYQELTQLKAAVGELPEKSKLQEIYQELTRLKAAVGELPEKSKLQEIYQELTRLKAAVGELPEKSKLQEIYQELTQLKAAVGELPDQSKQQQIYQELTDLKTAFERLCRHCPKDWTFFQGNCYFMSNSQRNWHDSVTACQEVRAQLVVIKTAEEQNFLQLQTSRSNRFSWMGLSDLNQEGTWQWVDGSPLSPSFQRYWNSGEPNNSGNEDCAEFSGSGWNDNRCDVDNYWICKKPAACFRDE", "binding result": "binds"},
      {"binder": "L-SIGN-9 (receptor, Expressed whole on the surface of stably transfected HeLa cells; also called L-SIGN isoform containing 9 tandem repeats; 9-repeat form of L-SIGN) MSDSKEPRVQQLGLLEEDPTTSGIRLFPRDFQFQQIHGHKSSTGCLGHGALVLQLLSFMLLAGVLVAILVQVSKVPSSLSQEQSEQDAIYQNLTQLKAAVGELSEKSKLQEIYQELTQLKAAVGELPEKSKLQEIYQELTRLKAAVGELPEKSKLQEIYQELTRLKAAVGELPEKSKLQEIYQELTRLKAAVGELPEKSKLQEIYQELTRLKAAVGELPEKSKLQEIYQELTRLKAAVGELPEKSKLQEIYQELTELKAAVGELPEKSKLQEIYQELTQLKAAVGELPDQSKQQQIYQELTDLKTAFERLCRHCPKDWTFFQGNCYFMSNSQRNWHDSVTACQEVRAQLVVIKTAEEQNFLQLQTSRSNRFSWMGLSDLNQEGTWQWVDGSPLSPSFQRYWNSGEPNNSGNEDCAEFSGSGWNDNRCDVDNYWICKKPAACFRDE", "binding result": "binds"}
    ]}
  ]
}
